Test results taken from article PMC5264588, “ER residency of the ceramide phosphoethanolamine synthase SMSr relies on homotypic oligomerization mediated by its SAM domain” (Scientific Reports, 2017).
Positions count from the first letter of the chain named. Names may count otherwise. “And” between values parts separate entries of the source, which are not always exact repeats. Equal values may be shown once.

B1: V5/His6-tagged SMSrΔSAM (domain or fragment, human, UniProt Q96LT4 79-415, looked up)
chain: HIDVLEEMGYNSDSPMGSMTPFISALQSTDWLCNGELSHDCDGPITDLNSDQYQYMNGKNKHSVRRLDPEYWKTILSCIYVFIVFGFTSFIMVIVHERVPDMQTYPPLPDIFLDSVPRIPWAFAMTEVCGMILCYIWLLVLLLHKHRSILLRRLCSLMGTVFLLRCFTMFVTSLSVPGQHLQCTGKIYGSVWEKLHRAFAIWSGFGMTLTGVHTCGDYMFSGHTVVLTMLNFFVTEYTPRSWNFLHTLSWVLNLFGIFFILAAHEHYSIDVFIAFYITTRLFLYYHTLANTRAYQQSRRARIWFPMFSFFECNVNGTVPNEYCWPFSKPAIMKRLIG
notes: SMSr (SAMD8), human, UniProt Q96LT4, without the first 78 N-terminal residues (SAM domain deleted); also called SMSrΔSAM-V5; SAM-domain truncation mutant; source: HeLa, transfected, in detergent extract; not shown: V5, C-terminal, kept; His6, C-terminal, kept
B2: V5/His6-tagged SMSr (enzyme, human, UniProt Q96LT4 1-415, looked up)
chain: MAGPNQLCIRRWTTKHVAVWLKDEGFFEYVDILCNKHRLDGITLLTLTEYDLRSPPLEIKVLGDIKRLMLSVRKLQKIHIDVLEEMGYNSDSPMGSMTPFISALQSTDWLCNGELSHDCDGPITDLNSDQYQYMNGKNKHSVRRLDPEYWKTILSCIYVFIVFGFTSFIMVIVHERVPDMQTYPPLPDIFLDSVPRIPWAFAMTEVCGMILCYIWLLVLLLHKHRSILLRRLCSLMGTVFLLRCFTMFVTSLSVPGQHLQCTGKIYGSVWEKLHRAFAIWSGFGMTLTGVHTCGDYMFSGHTVVLTMLNFFVTEYTPRSWNFLHTLSWVLNLFGIFFILAAHEHYSIDVFIAFYITTRLFLYYHTLANTRAYQQSRRARIWFPMFSFFECNVNGTVPNEYCWPFSKPAIMKRLIG
notes: SMSr (SAMD8), ceramide phosphoethanolamine synthase, human, UniProt Q96LT4; the cDNA was PCR amplified and cloned with a C-terminal V5/His6 tag; also called SMSr-V5; SAMD8; source: HeLa, transfected (pcDNA3.1/V5-His TOPO), in detergent extract; not shown: V5, C-terminal, kept; His6, C-terminal, kept
B3: HA-tagged SMSr (enzyme, human, UniProt Q96LT4 1-415, looked up)
chain: B2 chain
notes: SMSr (SAMD8), ceramide phosphoethanolamine synthase, human, UniProt Q96LT4; also called SMSr-HA; full-length SMSr-HA; source: HeLa (wild-type or SMSr-/-), transfected, in detergent extract; not shown: HA, C-terminal, kept
B4: HA-tagged SMSr^D348E (enzyme, human, UniProt Q96LT4 1-415, looked up)
chain: B2 chain with D348E
notes: SMSr (SAMD8), human, UniProt Q96LT4, with D348E; also called enzyme-dead SMSr; source: SMSr-/- HeLa, transfected, in detergent extract; not shown: HA, C-terminal, kept
B5: HA-tagged SMSr^L62E/G63D/K66E (SMSr^OD) (enzyme, human, UniProt Q96LT4 1-415, looked up)
chain: B2 chain with L62E, G63D, K66E
notes: SMSr (SAMD8), human, UniProt Q96LT4, with L62E, G63D and K66E; also called oligomerization-defective triple mutant; source: HeLa (wild-type or SMSr-/-), transfected, in detergent extract; not shown: HA, C-terminal, kept
B6: V5/His6-tagged SMSr expressed in yeast (enzyme, human, UniProt Q96LT4 1-415, looked up)
chain: B2 chain
notes: SMSr (SAMD8), human, UniProt Q96LT4; also called SMSr-V5; pYES2.1/SMSr-V5-His TOPO; source: Saccharomyces cerevisiae IAY11, transformed (pYES2.1/SMSr-V5-His TOPO), in lysate

Columns and labels:
[1] = molecular target: the molecule itself; experiment: cross-linking; intact HeLa cells (wild-type or SMSr-/-) treated with DSP (0-50 μM, 15 min, RT), lysed with detergent and 10 mM NEM; anti-HA or anti-V5 immunoprecipitation or Ni-NTA, immunoblot against the same tag
[2] = molecular target: the molecule itself; experiment: SDS-resistant oligomers on SDS-PAGE of affinity-purified protein; HeLa cells transfected with one V5(/His6)-tagged construct; anti-V5 immunoprecipitates or Ni-NTA eluates, non-reducing SDS-PAGE, anti-V5 immunoblot; no cross-linker; oligomers mostly lost with 10 mM NEM in lysis or 100 mM DTT
V5/His6-tagged SMSr = molecular target: B2; experiment: co-IP; detergent extracts of HeLa cells co-transfected with HA-tagged and V5/His6-tagged constructs; anti-V5 immunoprecipitation, immunoblot with anti-V5 and anti-HA; non-reducing SDS-PAGE; no NEM named; settings: partners not purified
[3] = molecular target: the molecule itself; experiment: cross-linking; yeast cells expressing V5/His6-tagged SMSr treated with DSP (0-50 μM, 15 min), lysed, anti-V5 immunoblot

Binder	stoichiometry N [1]	other results
B1	2	–
B2	–	stoichiometry N [2]: 3 and 6
B3	3 and 6	stoichiometry N (V5/His6-tagged SMSr): 3 and 6
B4	6 and 3	–
B5	6 and 3 and 2	–
B6	–	stoichiometry N [3]: 3 and 6
